For the assay, the target named is ground chicken feathers (keratin).

The text below walks through data of patent US20180263259A1.

In the case of FoodPro® PXT (enzyme), the Soluble dry matter yield (%) was determined as 48.3%.
